The values that follow come from paper PMC12098869, “An mRNA-display derived cyclic peptide scaffold reveals the substrate binding interactions of an N-terminal cysteine oxidase” (Nature Communications, 2025).

Values joined by “and” are separate entries in the source; they are usually repeats but may differ in a detail not shown here. Equal values may be shown once. Bridges are numbered along the chain shown (N, C = ends). Where no end group is shown, it is not given here.

In test [1] the target is T1, 2-aminoethanethiol dioxygenase (ADO), full-length human, N-terminally His-tagged and biotinylated … (human, UniProt Q96SZ5 1-270, biotin (biotinylated during expression, 0.2 mM biotin added)).
T1 sequence (looked up): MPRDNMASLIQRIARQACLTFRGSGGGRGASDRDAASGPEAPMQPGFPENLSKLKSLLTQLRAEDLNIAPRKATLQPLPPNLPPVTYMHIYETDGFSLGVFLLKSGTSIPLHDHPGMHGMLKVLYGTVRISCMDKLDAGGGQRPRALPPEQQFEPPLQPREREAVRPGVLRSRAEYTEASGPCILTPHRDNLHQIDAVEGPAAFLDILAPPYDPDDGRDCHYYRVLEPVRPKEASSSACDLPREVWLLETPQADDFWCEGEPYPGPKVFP
Kind of test: cell-based or functional assay.

Test [2] addresses 2-aminoethanethiol dioxygenase (ADO), wild type, biotinylated (pQE80L-Navi-ADO) (human). Kind of test: SPR; single-cycle kinetics (SCK), 1:1 binding model; biotinylated ADO or variant immobilised on a Biotin CAP chip, peptide injected at 25.6, 64, 160, 400, 1000 nM; 4 °C; 20 mM HEPES pH 7.5, 500 mM NaCl, 10 mM DTT, 0.1% (v/v) tween-20; 50 μL/minute. On the technique in general: SPR reads the build-up and loss of mass on a sensor chip optically.

The target of test [3] is T2, 2-aminoethanethiol dioxygenase (ADO), full-length human, N-terminally His-tagged and biotinylated … (human, UniProt Q96SZ5 1-270, biotin (biotinylated during expression, 0.2 mM biotin added)).
T2 construct: 2-aminoethanethiol dioxygenase (ADO), human, UniProt Q96SZ5, full length; Immobilised through its biotin on a Biotin CAP chip for SPR; also called wild type ADO; Biotinylated-ADO; source: E. coli Rosetta2(DE3), purified (Ni-NTA, SEC); not shown: biotinylation tag (from the vector pQE80L-Navi), N-terminal, kept
T2 sequence (looked up): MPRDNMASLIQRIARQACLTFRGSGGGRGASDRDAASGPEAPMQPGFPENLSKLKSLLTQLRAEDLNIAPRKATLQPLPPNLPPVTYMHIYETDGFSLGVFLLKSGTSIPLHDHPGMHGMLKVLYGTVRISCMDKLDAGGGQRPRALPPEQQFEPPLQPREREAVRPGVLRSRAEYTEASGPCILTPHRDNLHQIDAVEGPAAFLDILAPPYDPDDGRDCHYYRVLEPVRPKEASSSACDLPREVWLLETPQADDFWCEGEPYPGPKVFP
As to the kind of experiment: SPR; single-cycle kinetics (1:1 binding model); biotinylated ADO immobilised on a Biotin CAP chip (~2500-3000 RU), cyclic peptide injected; Biacore T200, 4 °C; 20 mM HEPES pH 7.5, 500 mM NaCl, 10 mM DTT, 0.1% tween-20; 50 µL/minute; each cell is one of three independent measurements. The settings on record: both partners purified.

The target of test [4] is 2-aminoethanethiol dioxygenase (ADO), wild type, biotinylated (pQE80L-Navi-ADO) (human).
The target of test [5] is 2-aminoethanethiol dioxygenase (ADO), full-length human, N-terminally His-tagged and biotinylated (pQE80L-Navi-ADO) (human) (UniProt Q96SZ5).
The target in test [6] is T3, 2-aminoethanethiol dioxygenase (ADO), wild type, biotinylated (pQE80L-Navi-ADO) (human, biotin on the Avi tag).
T3 construct: 2-aminoethanethiol dioxygenase (ADO), human, full length; also called Biotinylated-ADO; source: E. coli Rosetta2(DE3), purified (Ni-NTA, SEC); not shown: Avi tag, N-terminal, kept; His6, N-terminal, kept
T3 chain: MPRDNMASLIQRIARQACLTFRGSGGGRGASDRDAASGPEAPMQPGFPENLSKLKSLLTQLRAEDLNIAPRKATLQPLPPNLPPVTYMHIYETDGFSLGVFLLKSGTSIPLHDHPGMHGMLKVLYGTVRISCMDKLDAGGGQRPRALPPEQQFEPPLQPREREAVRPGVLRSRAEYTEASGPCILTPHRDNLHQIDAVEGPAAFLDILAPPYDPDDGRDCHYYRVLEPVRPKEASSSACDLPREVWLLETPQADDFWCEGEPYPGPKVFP
As to the kind of experiment: SPR; single-cycle kinetics (SCK), 1:1 binding model; biotinylated ADO or variant immobilised on a Biotin CAP chip, peptide injected at 25.6, 64, 160, 400, 1000 nM; 4 °C; 20 mM HEPES pH 7.5, 500 mM NaCl, 10 mM DTT, 0.1% (v/v) tween-20; 50 μL/minute. The settings on record: both partners purified.

B1: CP6-K4A (peptide)
peptide: {CH2CO}-YIVATFWLGSHRQC
modifications: thioether N-14
As for B1, in test [1], the “IC50 of inhibition of ADO activity” value was found to be 21000 nM.

B2: CP6-F6S (peptide)
peptide: {CH2CO}-YIVKTSWLGSHRQC
modifications: thioether N-14
notes: the substitution F6S is to be applied to them; Single amino acid substituent of CP6; source: synthetic peptide
What is called Kd is the equilibrium constant for the complex coming apart. A lower Kd goes with tighter binding. Regarding B2, the Kd in test [2] was 5.8 nM; in test [3], 5.8 nM and 5.64 nM and 5.96 nM. Moreover, the IC50 of inhibition of ADO activity (oxidation of RGS5 (2-15) followed by LCMS; enzyme from the pET28a-ADO construct); blocks ADO with RGS5 (2-15) in test [4] worked out at 0.19 µM. The same molecule yielded an IC50 of inhibition of ADO activity in test [5] of 200 nM.

B3: cyclic peptide CP6 (peptide)
peptide: {CH2CO}-YIVKTFWLGSHRQC-NH2
modifications: thioether N-14
SMILES: CC[C@H](C)[C@@H]1NC(=O)[C@H](Cc2ccc(O)cc2)NC(=O)CSC[C@@H](C(N)=O)NC(=O)[C@H](CCC(N)=O)NC(=O)[C@H](CCCNC(=N)N)NC(=O)[C@H](Cc2c[nH]cn2)NC(=O)[C@H](CO)NC(=O)CNC(=O)[C@H](CC(C)C)NC(=O)[C@H](Cc2c[nH]c3ccccc23)NC(=O)[C@H](Cc2ccccc2)NC(=O)[C@H]([C@@H](C)O)NC(=O)[C@H](CCCCN)NC(=O)[C@H](C(C)C)NC1=O
notes: selected by RaPID mRNA display against ADO; also called ADO-L-06; source: synthetic peptide (Fmoc-SPPS)
In the case of B3, the dissociation constant Kd in test [6] stood at 30 nM.
